In US20060104978A1, “Methods and compositions for PDGF-C activation and inhibition” (LUDWIG INSTITUTE FOR CANCER RESEARCH, priority 2003, published 2006):

B1: α2-anti-plasmin: specific plasmin inhibitor (#4030, American Diagnostica Inc.) (protein, UniProt P08697 40-491, looked up)
Alpha-2-antiplasmin: NQEQVSPLTLLKLGNQEPGGQTALKSPPGVCSRDPTPEQTHRLARAMMAFTADLFSLVAQTSTCPNLILSPLSVALALSHLALGAQNHTLQRLQQVLHAGSGPCLPHLLSRLCQDLGPGAFRLAARMYLQKGFPIKEDFLEQSEQLFGAKPVSLTGKQEDDLANINQWVKEATEGKIQEFLSGLPEDTVLLLLNAIHFQGFWRNKFDPSLTQRDSFHLDEQFTVPVEMMQARTYPLRWFLLEQPEIQVAHFPFKNNMSFVVLVPTHFEWNVSQVLANLSWDTLHPPLVWERPTKVRLPKLYLKHQMDLVATLSQLGLQELFQAPDLRGISEQSLVVSGVQHQSTLELSEVGVEAAAATSIAMSRMSLSSFSVNRPFLFFIFEDTTGLPLFVGSVRNPNPSAPRELKEQQDSPGNKDFLQSLKGFPRGDKLFGPDLKLVPPMEEDYPQFGSPK
B2: PDCUBPC: chimeric PDGF-C carrying the CUB domain from PDGF-D and the hinge region and growth factor domain of PDGF-C (protein)
chain: RDTSATPQSASIKALRNANLRRDESNHLTDLYRRDETIQVKGNGYVQSPRFPNSYPRNLLLTWRLHSQENTRIQLVFDNQFGLEEAENDICRYDFVEVEDISETSTIIRGRWCGHKEVPPRIKSRTNQIKITFKSDDYFVAKPGFKIYYSLLEDQFTEAVSPSVLPPSALPLDLLNNAITAFSTLEDLIRYLEPERWQLDLEDLYRPTWQLLGKAFVFGRKSRVVDLNLLTEEVRLYSCTPRNFSVSIREELKRTDTIFWPGCLLVKRCGGNCACCLHNCNECQCVPSKVTKKYHEVLQLRPKTGVRGLHKSLTDVALEHHEECDCVCRGSTGG

Assays:
latent PDGF-CC = molecular target: T1, latent PDGF-CC (Homo sapiens, UniProt Q9NRA1); assay: Cotransfection assay in COS-1 cells: protease plus full-length PDGF-C; format: cell-based; conditions: α2-anti-plasmin 10 ng-1 μg added to the cotransfection medium for 24 hours
T1 construct: cotransfected with full-length PDGF-C (Li et al, 2000), full-length PDGF-D (Bergsten et al, 2001); expressed in transfected cells; host or cells: COS-1 cells
Description: A cotransfection assay was established to identify serine proteases able to cleave and activate latent PDGF-CC. Expression plasmids encoding the relevant enzymes and full-length PDGF-C were cotransfected into COS-1 cells, and aliquots of the conditioned media from the transfectants were subjected to SDS-PAGE and immunoblotting using antibodies to the growth factor domain of PDGF-C. […] As a specificity control, the ability of tPA and NT to use full-length PDGF-DD as the substrate in the cotransfection assay was analysed. […] One difference in the latter results, as compared with the results from the cotransfection assay, was that purified tPA generated a second intermediate species of 32 kDa using latent PDGF-CC as the substrate. It is possible that this intermediate is the result of digestion by plasmin contamination in the tPA preparation, since the size of the fragment is similar to that of plasmincleaved PDGF-CC previously reported (Li et al, 2000). […]
To test the endogenous expression of PDGF-CC, subconfluent AG1523 cells and primary fibroblast cultures were cultured in serum-free DMEM overnight. […] In the case of the primary cultures, total protein concentration was measured and normalized (Bradford, 1976). […]

tPA = assay: Cotransfection assay in COS-1 cells: PDGF-CC forms and mutants coexpressed with tPA; format: cell-based, human; conditions: COS-1 cotransfection with tPA, immunoblot; cleavage site mutant made from mouse PDGF-C cDNA
Description: The structural requirements for recognition of full-length PDGF-CC as a substrate for tPA were mapped by analysis of several mutated forms of PDGF-CC using the co-transfection assay. The mutants of PDGF-CC included a chimeric form of PDGF-C carrying the CUB domain from PDGF-D and the hinge region and growth factor domain of PDGF-C (mutant PDCUBPC), and several truncation mutants lacking the CUB domain and increasing parts of the hinge region (schematically illustratrated in FIG. 6A). All mutants were properly expressed in transfected COS-1 cells, formed disulfide-linked dimers (data not shown), and were efficiently secreted, except truncation mutant Δ190 that was expressed at a lower level in the conditioned medium (FIG. 6B).
A conserved site of four amino acids containing three basic amino-acid residues (amino-acid residues -R-K-S-R-) was previously identified as a potential site for proteolytic activation of latent PDGF-CC (Li et al, 2000). […]
To test the endogenous expression of PDGF-CC, subconfluent AG1523 cells and primary fibroblast cultures were cultured in serum-free DMEM overnight. […] In the case of the primary cultures, total protein concentration was measured and normalized (Bradford, 1976). […] PDGF-C and PDGF-D were detected by immunoblotting using affinity-purified polyclonal rabbit antibodies against PDGF-C (Li et al, 2000) and PDGF-D (Bergsten et al, 2001), respectively. […]

T1 sequence (Q9NRA1 23-345): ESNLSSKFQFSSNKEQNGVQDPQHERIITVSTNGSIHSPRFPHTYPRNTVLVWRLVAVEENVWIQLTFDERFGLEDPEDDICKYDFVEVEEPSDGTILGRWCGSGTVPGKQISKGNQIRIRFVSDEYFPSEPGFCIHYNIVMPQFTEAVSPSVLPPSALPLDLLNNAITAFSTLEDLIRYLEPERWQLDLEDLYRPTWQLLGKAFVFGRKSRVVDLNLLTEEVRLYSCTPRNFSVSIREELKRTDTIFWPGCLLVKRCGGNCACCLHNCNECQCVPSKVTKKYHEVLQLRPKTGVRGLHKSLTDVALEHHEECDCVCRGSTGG
Chain of tPA (P00750 36-562): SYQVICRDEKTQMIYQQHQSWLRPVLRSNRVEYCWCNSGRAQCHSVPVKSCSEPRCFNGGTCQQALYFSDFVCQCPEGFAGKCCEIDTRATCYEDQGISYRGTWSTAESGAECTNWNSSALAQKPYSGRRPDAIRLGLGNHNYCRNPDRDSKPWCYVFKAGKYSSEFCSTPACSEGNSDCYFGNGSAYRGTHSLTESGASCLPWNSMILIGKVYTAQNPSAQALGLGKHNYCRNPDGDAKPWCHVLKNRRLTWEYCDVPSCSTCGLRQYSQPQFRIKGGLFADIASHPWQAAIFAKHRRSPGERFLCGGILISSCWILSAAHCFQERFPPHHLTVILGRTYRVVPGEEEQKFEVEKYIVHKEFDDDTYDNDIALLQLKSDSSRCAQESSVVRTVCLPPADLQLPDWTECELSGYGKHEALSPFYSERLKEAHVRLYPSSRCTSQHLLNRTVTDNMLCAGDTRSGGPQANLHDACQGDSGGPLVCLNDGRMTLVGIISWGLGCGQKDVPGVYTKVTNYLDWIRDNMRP

Molecule | effect on release of core PDGF-C by tPA (latent PDGF-CC) | cleavage of the PDGF-CC form by coexpressed tPA (tPA)
B1 | had no effect on the release of core PDGF-C by tPA | –
B2 | – | neither chimeric PDCUBPC, nor the truncation mutants lacking the CUB domain, were efficiently cleaved
